Non-standard residues stand in square brackets, D forms with d. Ala(4-thiazolyl) = N[C@@H](Cc1cscn1)C(=O)O; 2Pal = N[C@@H](Cc1ccccn1)C(=O)O; 3Pal = N[C@@H](Cc1cccnc1)C(=O)O; 4Pal = N[C@@H](Cc1ccncc1)C(=O)O; d2Pal = N[C@H](Cc1ccccn1)C(=O)O; Ac6c = NC1(C(=O)O)CCCCC1; Ac5c = NC1(C(=O)O)CCCC1

Sequences and labels used below:
T1: Y1 receptor (human, UniProt P25929 1-384)
T1 construct: whole, on cells; Assayed as membrane homogenates of SK-N-MC cells, not intact cells; also called NPY Y1
T1 sequence (looked up): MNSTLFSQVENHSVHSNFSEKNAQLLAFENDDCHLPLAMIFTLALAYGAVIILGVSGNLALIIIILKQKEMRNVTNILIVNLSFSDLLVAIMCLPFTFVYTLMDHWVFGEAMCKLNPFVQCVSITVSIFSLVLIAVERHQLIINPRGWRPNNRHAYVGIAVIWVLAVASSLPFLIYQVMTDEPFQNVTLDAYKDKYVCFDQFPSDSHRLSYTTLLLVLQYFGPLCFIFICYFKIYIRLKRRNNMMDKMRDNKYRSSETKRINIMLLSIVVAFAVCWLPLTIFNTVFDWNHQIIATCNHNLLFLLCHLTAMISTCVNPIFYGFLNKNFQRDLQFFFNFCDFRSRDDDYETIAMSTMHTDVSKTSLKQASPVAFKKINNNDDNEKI

T2: Y2 receptor (human, UniProt P49146 1-381)
T2 construct: whole, on cells; Assayed as membrane homogenates of SK-N-BE2 cells, not intact cells
T2 sequence (looked up): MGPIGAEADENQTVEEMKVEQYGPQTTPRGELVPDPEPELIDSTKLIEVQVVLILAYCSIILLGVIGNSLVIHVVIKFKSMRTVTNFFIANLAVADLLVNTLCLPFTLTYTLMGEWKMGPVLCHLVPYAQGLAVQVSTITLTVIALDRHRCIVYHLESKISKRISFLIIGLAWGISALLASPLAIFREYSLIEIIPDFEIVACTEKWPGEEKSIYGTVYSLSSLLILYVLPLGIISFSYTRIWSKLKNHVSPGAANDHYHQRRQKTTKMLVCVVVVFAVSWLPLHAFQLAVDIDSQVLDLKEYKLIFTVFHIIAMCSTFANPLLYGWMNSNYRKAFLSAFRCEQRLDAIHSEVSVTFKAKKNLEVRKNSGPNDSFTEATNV

B1: Ac-[A6c^31]hPYY(22-36)NH2 (peptide)
peptide: Ac-ASLRHYLNL[Ac6c]TRQRY-NH2
SMILES: CC(=O)N[C@@H](C)C(=O)N[C@@H](CO)C(=O)N[C@@H](CC(C)C)C(=O)N[C@@H](CCCNC(=N)N)C(=O)N[C@@H](Cc1c[nH]cn1)C(=O)N[C@@H](Cc1ccc(O)cc1)C(=O)N[C@@H](CC(C)C)C(=O)N[C@@H](CC(N)=O)C(=O)N[C@@H](CC(C)C)C(=O)NC1(C(=O)N[C@H](C(=O)N[C@@H](CCCNC(=N)N)C(=O)N[C@@H](CCC(N)=O)C(=O)N[C@@H](CCCNC(=N)N)C(=O)N[C@@H](Cc2ccc(O)cc2)C(N)=O)[C@@H](C)O)CCCCC1
notes: Synthetic analog of human PYY(22-36)
B2: Ac-(Taz^26, Leu^31)hPPY(24-36)NH2 (peptide)
peptide: Ac-LR[Ala(4-thiazolyl)]YLNLLTRQRY-NH2
SMILES: CC(=O)N[C@@H](CC(C)C)C(=O)N[C@@H](CCCNC(=N)N)C(=O)N[C@@H](Cc1cscn1)C(=O)N[C@@H](Cc1ccc(O)cc1)C(=O)N[C@@H](CC(C)C)C(=O)N[C@@H](CC(N)=O)C(=O)N[C@@H](CC(C)C)C(=O)N[C@@H](CC(C)C)C(=O)N[C@H](C(=O)N[C@@H](CCCNC(=N)N)C(=O)N[C@@H](CCC(N)=O)C(=O)N[C@@H](CCCNC(=N)N)C(=O)N[C@@H](Cc1ccc(O)cc1)C(N)=O)[C@@H](C)O
notes: Also carries Leu at 31 (residue 8 of the peptide), already in the entry
B3: Ac-[4Pal^26]hPYY(22-36)NH2 (peptide)
peptide: Ac-ASLR[4Pal]YLNLVTRQRY-NH2
SMILES: CC(=O)N[C@@H](C)C(=O)N[C@@H](CO)C(=O)N[C@@H](CC(C)C)C(=O)N[C@@H](CCCNC(=N)N)C(=O)N[C@@H](Cc1ccncc1)C(=O)N[C@@H](Cc1ccc(O)cc1)C(=O)N[C@@H](CC(C)C)C(=O)N[C@@H](CC(N)=O)C(=O)N[C@@H](CC(C)C)C(=O)N[C@H](C(=O)N[C@H](C(=O)N[C@@H](CCCNC(=N)N)C(=O)N[C@@H](CCC(N)=O)C(=O)N[C@@H](CCCNC(=N)N)C(=O)N[C@@H](Cc1ccc(O)cc1)C(N)=O)[C@@H](C)O)C(C)C
notes: as for B1
B4: Ac-[A5c^31]hPYY(22-36)NH2 (peptide)
peptide: Ac-ASLRHYLNL[Ac5c]TRQRY-NH2
SMILES: CC(=O)N[C@@H](C)C(=O)N[C@@H](CO)C(=O)N[C@@H](CC(C)C)C(=O)N[C@@H](CCCNC(=N)N)C(=O)N[C@@H](Cc1c[nH]cn1)C(=O)N[C@@H](Cc1ccc(O)cc1)C(=O)N[C@@H](CC(C)C)C(=O)N[C@@H](CC(N)=O)C(=O)N[C@@H](CC(C)C)C(=O)NC1(C(=O)N[C@H](C(=O)N[C@@H](CCCNC(=N)N)C(=O)N[C@@H](CCC(N)=O)C(=O)N[C@@H](CCCNC(=N)N)C(=O)N[C@@H](Cc2ccc(O)cc2)C(N)=O)[C@@H](C)O)CCCC1
notes: as for B1
B5: Ac-[3Pal^26]hPYY(22-36)NH2 (peptide)
peptide: Ac-ASLR[3Pal]YLNLVTRQRY-NH2
SMILES: CC(=O)N[C@@H](C)C(=O)N[C@@H](CO)C(=O)N[C@@H](CC(C)C)C(=O)N[C@@H](CCCNC(=N)N)C(=O)N[C@@H](Cc1cccnc1)C(=O)N[C@@H](Cc1ccc(O)cc1)C(=O)N[C@@H](CC(C)C)C(=O)N[C@@H](CC(N)=O)C(=O)N[C@@H](CC(C)C)C(=O)N[C@H](C(=O)N[C@H](C(=O)N[C@@H](CCCNC(=N)N)C(=O)N[C@@H](CCC(N)=O)C(=O)N[C@@H](CCCNC(=N)N)C(=O)N[C@@H](Cc1ccc(O)cc1)C(N)=O)[C@@H](C)O)C(C)C
notes: as for B1
B6: Ac-[D2Pal^26]hPYY(22-36)NH2 (peptide)
peptide: Ac-ASLR[d2Pal]YLNLVTRQRY-NH2
SMILES: CC(=O)N[C@@H](C)C(=O)N[C@@H](CO)C(=O)N[C@@H](CC(C)C)C(=O)N[C@@H](CCCNC(=N)N)C(=O)N[C@H](Cc1ccccn1)C(=O)N[C@@H](Cc1ccc(O)cc1)C(=O)N[C@@H](CC(C)C)C(=O)N[C@@H](CC(N)=O)C(=O)N[C@@H](CC(C)C)C(=O)N[C@H](C(=O)N[C@H](C(=O)N[C@@H](CCCNC(=N)N)C(=O)N[C@@H](CCC(N)=O)C(=O)N[C@@H](CCCNC(=N)N)C(=O)N[C@@H](Cc1ccc(O)cc1)C(N)=O)[C@@H](C)O)C(C)C
notes: as for B1
B7: Ac-(2Pal^26, Leu^31)hPPY(24-36)NH2 (peptide)
peptide: Ac-LR[2Pal]YLNLLTRQRY-NH2
SMILES: CC(=O)N[C@@H](CC(C)C)C(=O)N[C@@H](CCCNC(=N)N)C(=O)N[C@@H](Cc1ccccn1)C(=O)N[C@@H](Cc1ccc(O)cc1)C(=O)N[C@@H](CC(C)C)C(=O)N[C@@H](CC(N)=O)C(=O)N[C@@H](CC(C)C)C(=O)N[C@@H](CC(C)C)C(=O)N[C@H](C(=O)N[C@@H](CCCNC(=N)N)C(=O)N[C@@H](CCC(N)=O)C(=O)N[C@@H](CCCNC(=N)N)C(=O)N[C@@H](Cc1ccc(O)cc1)C(N)=O)[C@@H](C)O
notes: as for B2
B8: Ac-[A6c^30]hPYY(22-36)NH2 (peptide)
peptide: Ac-ASLRHYLN[Ac6c]VTRQRY-NH2
SMILES: CC(=O)N[C@@H](C)C(=O)N[C@@H](CO)C(=O)N[C@@H](CC(C)C)C(=O)N[C@@H](CCCNC(=N)N)C(=O)N[C@@H](Cc1c[nH]cn1)C(=O)N[C@@H](Cc1ccc(O)cc1)C(=O)N[C@@H](CC(C)C)C(=O)N[C@@H](CC(N)=O)C(=O)NC1(C(=O)N[C@H](C(=O)N[C@H](C(=O)N[C@@H](CCCNC(=N)N)C(=O)N[C@@H](CCC(N)=O)C(=O)N[C@@H](CCCNC(=N)N)C(=O)N[C@@H](Cc2ccc(O)cc2)C(N)=O)[C@@H](C)O)C(C)C)CCCCC1
notes: as for B1
B9: Ac-[A6c^28]hPYY(22-36)NH2 (peptide)
peptide: Ac-ASLRHY[Ac6c]NLVTRQRY-NH2
SMILES: CC(=O)N[C@@H](C)C(=O)N[C@@H](CO)C(=O)N[C@@H](CC(C)C)C(=O)N[C@@H](CCCNC(=N)N)C(=O)N[C@@H](Cc1c[nH]cn1)C(=O)N[C@@H](Cc1ccc(O)cc1)C(=O)NC1(C(=O)N[C@@H](CC(N)=O)C(=O)N[C@@H](CC(C)C)C(=O)N[C@H](C(=O)N[C@H](C(=O)N[C@@H](CCCNC(=N)N)C(=O)N[C@@H](CCC(N)=O)C(=O)N[C@@H](CCCNC(=N)N)C(=O)N[C@@H](Cc2ccc(O)cc2)C(N)=O)[C@@H](C)O)C(C)C)CCCCC1
notes: as for B1
B10: Ac-(3Pal^26, Leu^31)hPPY(24-36)NH2 (peptide)
peptide: Ac-LR[3Pal]YLNLLTRQRY-NH2
SMILES: CC(=O)N[C@@H](CC(C)C)C(=O)N[C@@H](CCCNC(=N)N)C(=O)N[C@@H](Cc1cccnc1)C(=O)N[C@@H](Cc1ccc(O)cc1)C(=O)N[C@@H](CC(C)C)C(=O)N[C@@H](CC(N)=O)C(=O)N[C@@H](CC(C)C)C(=O)N[C@@H](CC(C)C)C(=O)N[C@H](C(=O)N[C@@H](CCCNC(=N)N)C(=O)N[C@@H](CCC(N)=O)C(=O)N[C@@H](CCCNC(=N)N)C(=O)N[C@@H](Cc1ccc(O)cc1)C(N)=O)[C@@H](C)O
notes: as for B2
B11: Ac-[2Pal^26]hPYY(22-36)NH2 (peptide)
peptide: Ac-ASLR[2Pal]YLNLVTRQRY-NH2
SMILES: CC(=O)N[C@@H](C)C(=O)N[C@@H](CO)C(=O)N[C@@H](CC(C)C)C(=O)N[C@@H](CCCNC(=N)N)C(=O)N[C@@H](Cc1ccccn1)C(=O)N[C@@H](Cc1ccc(O)cc1)C(=O)N[C@@H](CC(C)C)C(=O)N[C@@H](CC(N)=O)C(=O)N[C@@H](CC(C)C)C(=O)N[C@H](C(=O)N[C@H](C(=O)N[C@@H](CCCNC(=N)N)C(=O)N[C@@H](CCC(N)=O)C(=O)N[C@@H](CCCNC(=N)N)C(=O)N[C@@H](Cc1ccc(O)cc1)C(N)=O)[C@@H](C)O)C(C)C
notes: as for B1
B12: Ac-(4Pal^26, Leu^31)hPPY(24-36)NH2 (peptide)
peptide: Ac-LR[4Pal]YLNLLTRQRY-NH2
SMILES: CC(=O)N[C@@H](CC(C)C)C(=O)N[C@@H](CCCNC(=N)N)C(=O)N[C@@H](Cc1ccncc1)C(=O)N[C@@H](Cc1ccc(O)cc1)C(=O)N[C@@H](CC(C)C)C(=O)N[C@@H](CC(N)=O)C(=O)N[C@@H](CC(C)C)C(=O)N[C@@H](CC(C)C)C(=O)N[C@H](C(=O)N[C@@H](CCCNC(=N)N)C(=O)N[C@@H](CCC(N)=O)C(=O)N[C@@H](CCCNC(=N)N)C(=O)N[C@@H](Cc1ccc(O)cc1)C(N)=O)[C@@H](C)O
notes: as for B2

One experiment deals with T1, Y1 receptor. Kind of experiment: radioligand competition against [125I-Leu31,Pro34]PYY, SK-N-MC membranes, Cheng-Prusoff.
Experimental: (§1) The final pellets were resuspended in approximately 20 ml of 50 mM Tris-HCl containing 5.0 mM MgCl₂, 0.1 mg/ml bacitracin, and 0.1% BSA (Buffer B), and held on ice for the receptor binding assay.
(§2) For assay, aliquots (0.4 ml) of the foregoing suspensions were incubated with 0.05 ml of 0.05 nM [¹²⁵I-Leu³¹, Pro³⁴]PYY (Y1 receptor) or [¹²⁵I]PYY(3-36) (Y2 receptor), (each ˜2200 Ci/mmol, New England Nuclear) in Buffer B, with or without 0.05 ml a solution (ranging from 0.01 nM -1000 nM) of an unlabeled competing peptide. After a 120 min incubation (25° C.), the bound radioligand was separated from the free by rapid filtration through GF/C filters, previously soaked in 0.3% polyethyleneimine. […] Inhibition constants (K₁,) were calculated using the well-known Cheng-Prusoff equation.
As to B1, the Ki is under 2000 nM.

Turning to B2, the Ki is under 2000 nM.

Consider B3, for which the Ki was under 2000 nM.

Molecule B4 had a Ki of under 2000 nM.

As for B5, the Ki is under 2000 nM.

The molecule B6 showed a Ki of under 2000 nM.

In turn, B7 displayed a Ki of under 2000 nM.

With B8, the Ki was under 2000 nM.

B9 returned a Ki of under 2000 nM.

B10: the Ki was under 2000 nM.

The molecule B11 returned a Ki of under 2000 nM.

B12: the Ki was under 2000 nM.

In another experiment the target is T2, Y2 receptor. The experiment can be described thus: radioligand competition against [125I]PYY(3-36), SK-N-BE2 membranes, Cheng-Prusoff.
Experimental: as §1, §2
In turn, B1 gave a Ki of under 1000 nM.

Molecule B2 returned a Ki of under 1000 nM.

Consider B3, for which the Ki is under 1000 nM.

Molecule B4 registered a Ki of under 1000 nM.

B5 yielded a Ki of under 1000 nM.

On to B6, for which the inhibitory constant (Ki) was under 1000 nM.

In turn, B7 had a Ki of under 1000 nM.

Consider B8, for which the Ki was under 1000 nM.

Molecule B9 showed an inhibition constant Ki of under 1000 nM.

Consider B10, for which the inhibition constant (Ki) was under 1000 nM.

The molecule B11 had a Ki of under 1000 nM.

In the case of B12, the Ki was under 1000 nM.

As usually defined, the Ki is a measure of affinity in units of concentration, obtained from inhibition or displacement.
